Data on one molecule can be found in US20140011732A1 (Novo Nordisk, published 2014).

Starred links: 1 amine or outer side, 2 acyl side, 3 side chain; linkers in the order of their positions; H or OH if unused. Non-standard residues stand in square brackets, D forms with d. Groups on a side chain read outwards from the residue. *: point of attachment. C20 diacid = O=C(O)CCCCCCCCCCCCCCCCCCC(=O)*; γGlu = O=C(O)[C@H](CCC(=O)[*:2])N[*:1]; Desaminohistidyl = O=C(CCc1c[nH]cn1)*; AEEA = NCCOCCOCC(=O)O; Inp = O=C(O)C1CCNCC1

In the assay the target is T1, human serum albumin (HSA) (human, UniProt P02768 25-609, biotinylated).
T1 construct: also called biotinylated HSA
In words: competition SPA on biotinylated HSA, 125I acylated GLP-1 tracer.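 Note: streptavidin SPA beads carrying biotinylated HSA, competition incubated 20 h at room temperature, plates then read on a TopCount counter.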

Procedure: Streptavidin-SPA beads (GE Healthcare RPNQ0009) were incubated with biotinylated HSA for 5 hours. The beads were washed with buffer to remove unbound HSA. […] After 20 hours of gentle rocking at room temperature the plates were centrifuged and counted on a TopCounter.

B1: [DesaminoHis7,Glu22,Arg26,Arg34]GLP-1-(7-37)Lys[2-(2-[2-(2-[2-(2-((S)-4-[1-[19-Carboxynonadecanoyl]piperidine-4-carbonylamino]-4-carboxybutyrylamino)ethoxy)etho … (peptide)
peptide: [Desaminohistidyl]AEGTFTSDVSSYLEEQAAREFIAWLVRGRGK([AEEA-AEEA-γGlu-Inp-C20 diacid])-NH2
SMILES: CC[C@H](C)[C@H](NC(=O)[C@H](Cc1ccccc1)NC(=O)[C@H](CCC(=O)O)NC(=O)[C@H](CCCNC(=N)N)NC(=O)[C@H](C)NC(=O)[C@H](C)NC(=O)[C@H](CCC(N)=O)NC(=O)[C@H](CCC(=O)O)NC(=O)[C@H](CCC(=O)O)NC(=O)[C@H](CC(C)C)NC(=O)[C@H](Cc1ccc(O)cc1)NC(=O)[C@H](CO)NC(=O)[C@H](CO)NC(=O)[C@@H](NC(=O)[C@H](CC(=O)O)NC(=O)[C@H](CO)NC(=O)[C@@H](NC(=O)[C@H](Cc1ccccc1)NC(=O)[C@@H](NC(=O)CNC(=O)[C@H](CCC(=O)O)NC(=O)[C@H](C)NC(=O)CCc1c[nH]cn1)[C@@H](C)O)[C@@H](C)O)C(C)C)C(=O)N[C@@H](C)C(=O)N[C@@H](Cc1c[nH]c2ccccc12)C(=O)N[C@@H](CC(C)C)C(=O)N[C@H](C(=O)N[C@@H](CCCNC(=N)N)C(=O)NCC(=O)N[C@@H](CCCNC(=N)N)C(=O)NCC(=O)N[C@@H](CCCCNC(=O)COCCOCCNC(=O)COCCOCCNC(=O)CC[C@H](NC(=O)C1CCN(C(=O)CCCCCCCCCCCCCCCCCCC(=O)O)CC1)C(=O)O)C(N)=O)C(C)C
In general, EC50 refers to the concentration needed to bring the measured effect to its halfway point. B1 returned a half-maximal effective concentration (EC50) of 300 to 800 nM.
